# T1: mouse EphB6 extracellular region-Fc-His protein (mouse; human, UniProt O08644 33-591)
# T1 construct: extracellular domain; not shown: Fc region of human IgG1; histidine tag
# T1 sequence (looked up): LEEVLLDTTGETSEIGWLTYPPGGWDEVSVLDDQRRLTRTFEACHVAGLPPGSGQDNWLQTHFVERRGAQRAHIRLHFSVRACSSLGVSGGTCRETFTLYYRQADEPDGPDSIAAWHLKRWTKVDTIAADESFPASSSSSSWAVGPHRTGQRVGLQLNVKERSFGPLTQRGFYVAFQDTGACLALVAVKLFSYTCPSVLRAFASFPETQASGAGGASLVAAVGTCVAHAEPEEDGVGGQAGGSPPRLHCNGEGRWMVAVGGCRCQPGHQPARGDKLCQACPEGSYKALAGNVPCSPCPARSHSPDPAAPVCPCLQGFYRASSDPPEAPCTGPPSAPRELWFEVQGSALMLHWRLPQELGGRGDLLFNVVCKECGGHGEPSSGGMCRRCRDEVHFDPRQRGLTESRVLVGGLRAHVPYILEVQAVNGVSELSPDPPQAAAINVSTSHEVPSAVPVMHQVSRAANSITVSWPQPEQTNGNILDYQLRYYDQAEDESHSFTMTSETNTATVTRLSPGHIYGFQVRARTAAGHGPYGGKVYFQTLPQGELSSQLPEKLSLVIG
# B1: mouse anti-EphA4 monoclonal antibody (antibody A) (antibody, mouse IgG1, kappa, V domains shown)
# VH: QVQLKQSGPSLVQPSQSLSITCTVSGFSLTRYGVHWVRQSPGKGLEWLGVIWRGGSTDYNAAFMSRLSITKDNSKSQVFFKMNSLQADDTAIYYCAKESLFGVYYDYGYYSMDYWGQGTSVTVSS
# VL: DIQMTQSPSSLSASLGERVSLTCRASQEISGYLSWLQQKPDGTIKRLIYAASTLDSGVPKRFSGSRSGSDYSLTISSLESEDFADYYCLQYASYPLTFGAGTKLELKR
# notes: purified from hybridoma supernatant
# B2: humanized anti-EphA4 monoclonal antibody (antibody B) (antibody, human IgG2, V domains shown)
# VH: QVQLVESGGGVVQPGRSLRLSCAVSGFSLTRFGVHWVRQAPGKGLEWVAVIWRGGSTDYNAAFMSRLTISKDNSKNTVYLQMNSLRAEDTAVYYCAKESLFGVYYDYGYYSMDYWGQGTTVTVSS
# VL: DIQMTQSPSSLSASVGDRVTITCRASQEISGYLSWLQQKPGKAPKRLIYAASTLDSGVPSRFSGSRSGTEYTLTISSLQPEDFATYYCLQYASYPLTFGGGTKVEIKR
# notes: expressed in Expi293F cells; also called humanized antibody of antibody A; HK2-42 / L1-8
# What was measured:
# [1] = target: T2, human EphA4 extracellular region-SEAP-His protein (human, UniProt P54764 20-547); assay: SPR (Biacore T200): human EphA4 extracellular region-SEAP-His captured on anti-His antibody, antibody A 1.6-100 nM as analyte, 1:1 fit
# T2 construct: also called human EphA4 extracellular region-SEAP-His 10; not shown: secretory alkaline phosphatase (SEAP); histidine tag
# Description: The binding affinity of antibody A against mouse and human EphA4 was determined by surface plasmon resonance (SPR method) employing Biacore T200 (GE Healthcare). First, anti-His antibodies (GE Healthcare, 28-9950-56) were fixed to a sensor chip CM5. Fixation was carried out by amine coupling method employing N-hydroxysuccinimide (NHS) and N-ethyl-N′-(3-dimethylaminopropyl) carbodiimide hydrochloride salt (EDC), and ethanolamine was employed for blocking (the sensor chip and reagents for fixation are all from GE Healthcare). This was diluted with the fixation buffer (10 mM sodium acetate, pH 4.5) to 3.5 μg/mL, and fixed onto the sensor chip according to the protocol accompanying Biacore T200. Mouse or human EphA4 extracellular region-SEAP-His 10 was diluted with the running buffer HBS-EP (GE Healthcare, BR-1001-88), and the solution was sent and captured onto the flow cell for 120 seconds (about 10 RU of captured amount). […] Fitting analysis by 1:1 binding model employing the software accompanying the system, BIA evaluation software, was carried out against the binding reaction curve obtained, and the binding affinity (KD=kd/ka) against mouse and human EphA4 was calculated.
# MBP = assay: ELISA: human EphA4 domain-MBP-His proteins (10 nM) captured on anti-6-His antibody, antibody B 10 nM, HRP anti-human IgG Fc fragment antibody, OD450-OD650
# Description: Rabbit anti-6-His antibodies (Bethyl Laboratories) were coated onto the wells of a 96-well plate (Nunc). After incubating at 4° C. overnight, the wells were blocked at room temperature for 1 hour by 1% Block Ace (DS Pharma Biomedical). After washing twice with 0.02% Tween 20/PBS (Nacalai Tesque), human EphA4 extracellular region-MBP-His protein, human EphA4 ligand binding domain-MBP-His protein, human EphA4 fibronectin type III domain 1-MBP-His protein, and human EphA4 fibronectin type III domain 2-MBP-His protein (final concentration 10 nM) were seeded into the wells, and incubated at room temperature for 1 hour. After washing 3 times, antibody B (final concentration 10 nM) was supplemented to the wells, and incubated at room temperature for 1 hour. Horseradish peroxidase-labeled rabbit anti-human IgG Fey fragment antibody (Jackson ImmunoResearch Laboratories) was added, and incubated at room temperature for 1 hour. After washing 5 times, TMB (KPL) solution was added to the wells, and upon confirmation of modest coloring, an equal amount of quenching solution (2 N […]) was added to the wells, and absorbance at 450 nm and 650 nm were read by a microplate reader (PerkinElmer).
# [2] = target: T1, mouse EphB6 extracellular region-Fc-His …; assay: ELISA: Fc-His proteins (1 nM) captured on anti-6-His antibody, antibody B 10 µg/mL with human IgG 100 µg/mL, HRP anti-human kappa light chain antibody, OD450 as % of mouse EphA4-Fc-His
# T2 sequence (P54764 20-547): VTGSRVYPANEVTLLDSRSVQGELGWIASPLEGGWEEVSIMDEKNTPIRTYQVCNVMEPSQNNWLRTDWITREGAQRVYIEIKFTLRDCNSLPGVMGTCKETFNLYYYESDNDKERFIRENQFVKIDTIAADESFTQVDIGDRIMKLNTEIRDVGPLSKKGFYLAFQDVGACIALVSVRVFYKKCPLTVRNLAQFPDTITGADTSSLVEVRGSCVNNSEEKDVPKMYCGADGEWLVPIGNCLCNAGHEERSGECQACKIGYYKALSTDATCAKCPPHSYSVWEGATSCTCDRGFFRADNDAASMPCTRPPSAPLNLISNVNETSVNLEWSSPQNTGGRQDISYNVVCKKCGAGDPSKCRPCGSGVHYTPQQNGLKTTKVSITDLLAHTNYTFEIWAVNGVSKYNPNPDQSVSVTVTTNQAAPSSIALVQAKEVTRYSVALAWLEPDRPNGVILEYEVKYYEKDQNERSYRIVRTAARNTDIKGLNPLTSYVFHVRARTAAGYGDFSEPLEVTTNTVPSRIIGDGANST
binder,measurement,setting,value
B1,koff,[1],0.000448 s⁻¹
same,kon,[1],379000 M⁻¹ s⁻¹
B2,binding result,MBP,no binding (tested: 10 nM)
same,binding result,[2],no binding (tested: 10 µg/mL)
